Measured values: publication PMC10597343

Biological target: T1, AcrR (Escherichia coli) (UniProt P0ACS9)
T1 sequence: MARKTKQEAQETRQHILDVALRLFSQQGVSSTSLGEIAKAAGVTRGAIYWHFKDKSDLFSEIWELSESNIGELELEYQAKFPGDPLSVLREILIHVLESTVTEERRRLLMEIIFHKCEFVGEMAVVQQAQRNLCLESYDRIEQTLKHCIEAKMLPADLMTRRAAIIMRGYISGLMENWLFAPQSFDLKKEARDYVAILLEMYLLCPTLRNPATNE
Experiment: EMSA
Details: EMSA with LightShift Chemiluminescent EMSA Kit, AcrR 0, 0.4 and 1 uM, as in ref 35; buffer, salt, pH and temperature not stated

CTTGCCATGCGATTTCCTTTTATCTTTCGACACGTAAAACGAATACCGGGGTTATCGGTCTGAATTGCGCAAAGTTTACGTTTAATTGTTTTTTTTAATAGCGGGAATAAGGGGCAGAGAAAAGAGTATTTCGGCGACTAACAAAAAATGGCTGTTTTTGAAAAAAATTCTAAAGGTTGTTTTACGACAGACGATAACAGGGTTGACGGCGATTGAGCCGACGGGTGGAAACCCAATACGTAATCAACGA (double strand) [fliDSTp]
binding: no binding

TGCAAGTAGTAAATATGACAAGTTGATGTCATAAATGTGTTTCAGCAACTCGGAGGTATGCATTATTCCCACCCAGAATAACCAACTTTATTTTTATGCGGTTTCACCGCACCCCGTGATGTCGCCGGGAAGCCCCGGTAAAAAATAATTAGCATTAGAATAGTTGCGAT (double strand) [flhDCpS2]
binding: no binding
